We go through 8 sequences from the supplement of paper PMC10065799, “High-throughput profiling of sequence recognition by tyrosine kinases and SH2 domains using bacterial peptide display” (eLife, 2023).

In one series the target is c-Src SH2. Description: SH2 binding enrichment of the phosphorylated peptide, bacterial display (enrichment ratio); higher = better substrate or ligand; peptides without Tyr show the background.
A further series concerns the target SHP2-C SH2. The description is as above.
The next series addresses Grb2 SH2 (UniProt P62993). The description is as above.
For the next series, the target named is Fes (UniProt P07332). Description: phosphorylation enrichment, bacterial display (enrichment ratio); higher = better substrate or ligand; peptides without Tyr show the background.
Another series has as its system AncSZ. The description is as above.
A further series has as its target EPHB1 (UniProt P54762). The series is described as above.
The target of a further series is Hck (UniProt P08631). Described as above.
The target of another series is Fyn (UniProt P06241). Described as above.
In another series the target is FGFR3 (UniProt P22607). Described as above.
Another series has as its system Fer (mouse). The series is described as above.
For another series, the target named is Jak2 (UniProt O60674). Described as above.
The target of a further series is MERTK (UniProt Q12866). The description is as above.
Another series concerns c-Src. Described as above.
For another series, the target named is FGFR1 (UniProt P11362). Described as above.
For a further series, the target named is EPHB2 (UniProt P29323). The series is described as above.
In another series the test system is c-Abl (mouse). The series is described as above.
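Throughout, for SH2 binding enrichment of the phosphorylated peptide, bacterial display: peptide library displayed on the E. coli surface as eCPX fusions, selected cells deep-sequenced, score is each peptide's frequency after selection divided by its frequency in the input.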
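Throughout, for phosphorylation enrichment, bacterial display: 11-residue human phosphosite peptides and single-mutation variants displayed on the E. coli surface, counted by deep sequencing, each peptide's frequency after selection divided by its frequency in the unselected input library; frequency after pTyr selection over input frequency; kinase dosed for 20-30% of maximal phosphorylation in three min.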

Chain of Jak2 (O60674 whole entry, looked up): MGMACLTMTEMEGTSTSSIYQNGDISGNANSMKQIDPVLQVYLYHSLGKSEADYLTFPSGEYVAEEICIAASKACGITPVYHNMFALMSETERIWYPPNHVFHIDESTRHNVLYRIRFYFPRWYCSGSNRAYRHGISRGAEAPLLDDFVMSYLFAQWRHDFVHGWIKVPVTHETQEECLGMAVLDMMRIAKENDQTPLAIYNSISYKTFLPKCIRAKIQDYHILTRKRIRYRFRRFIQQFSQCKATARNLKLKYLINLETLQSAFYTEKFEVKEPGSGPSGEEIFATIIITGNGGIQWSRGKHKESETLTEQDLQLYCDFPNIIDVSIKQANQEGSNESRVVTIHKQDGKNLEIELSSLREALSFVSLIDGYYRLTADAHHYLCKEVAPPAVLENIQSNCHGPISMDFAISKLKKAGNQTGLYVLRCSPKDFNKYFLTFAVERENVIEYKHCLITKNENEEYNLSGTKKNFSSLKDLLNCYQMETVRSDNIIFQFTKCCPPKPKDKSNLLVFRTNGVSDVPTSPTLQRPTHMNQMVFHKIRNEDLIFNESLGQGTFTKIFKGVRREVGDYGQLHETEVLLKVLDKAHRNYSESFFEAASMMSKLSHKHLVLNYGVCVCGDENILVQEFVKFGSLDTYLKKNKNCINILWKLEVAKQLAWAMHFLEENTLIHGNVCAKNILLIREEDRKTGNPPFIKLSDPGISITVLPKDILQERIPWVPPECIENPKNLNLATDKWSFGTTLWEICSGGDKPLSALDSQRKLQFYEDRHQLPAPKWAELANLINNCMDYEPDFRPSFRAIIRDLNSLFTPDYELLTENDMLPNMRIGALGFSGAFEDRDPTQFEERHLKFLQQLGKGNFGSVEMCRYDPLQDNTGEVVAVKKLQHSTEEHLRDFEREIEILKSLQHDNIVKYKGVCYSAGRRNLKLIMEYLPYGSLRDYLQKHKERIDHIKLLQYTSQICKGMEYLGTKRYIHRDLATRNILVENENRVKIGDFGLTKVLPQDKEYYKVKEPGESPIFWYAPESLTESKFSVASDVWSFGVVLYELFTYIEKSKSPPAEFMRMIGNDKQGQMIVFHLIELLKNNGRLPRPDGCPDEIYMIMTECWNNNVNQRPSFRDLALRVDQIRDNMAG
Chain of Grb2 SH2 (P62993 whole entry, looked up): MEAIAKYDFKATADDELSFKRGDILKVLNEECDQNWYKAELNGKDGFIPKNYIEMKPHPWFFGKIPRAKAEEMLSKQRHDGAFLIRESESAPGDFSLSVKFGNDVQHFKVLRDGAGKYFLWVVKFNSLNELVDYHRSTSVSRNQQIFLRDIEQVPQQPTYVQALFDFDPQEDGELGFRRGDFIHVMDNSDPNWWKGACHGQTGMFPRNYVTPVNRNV
Chain of FGFR1 (P11362 whole entry, looked up): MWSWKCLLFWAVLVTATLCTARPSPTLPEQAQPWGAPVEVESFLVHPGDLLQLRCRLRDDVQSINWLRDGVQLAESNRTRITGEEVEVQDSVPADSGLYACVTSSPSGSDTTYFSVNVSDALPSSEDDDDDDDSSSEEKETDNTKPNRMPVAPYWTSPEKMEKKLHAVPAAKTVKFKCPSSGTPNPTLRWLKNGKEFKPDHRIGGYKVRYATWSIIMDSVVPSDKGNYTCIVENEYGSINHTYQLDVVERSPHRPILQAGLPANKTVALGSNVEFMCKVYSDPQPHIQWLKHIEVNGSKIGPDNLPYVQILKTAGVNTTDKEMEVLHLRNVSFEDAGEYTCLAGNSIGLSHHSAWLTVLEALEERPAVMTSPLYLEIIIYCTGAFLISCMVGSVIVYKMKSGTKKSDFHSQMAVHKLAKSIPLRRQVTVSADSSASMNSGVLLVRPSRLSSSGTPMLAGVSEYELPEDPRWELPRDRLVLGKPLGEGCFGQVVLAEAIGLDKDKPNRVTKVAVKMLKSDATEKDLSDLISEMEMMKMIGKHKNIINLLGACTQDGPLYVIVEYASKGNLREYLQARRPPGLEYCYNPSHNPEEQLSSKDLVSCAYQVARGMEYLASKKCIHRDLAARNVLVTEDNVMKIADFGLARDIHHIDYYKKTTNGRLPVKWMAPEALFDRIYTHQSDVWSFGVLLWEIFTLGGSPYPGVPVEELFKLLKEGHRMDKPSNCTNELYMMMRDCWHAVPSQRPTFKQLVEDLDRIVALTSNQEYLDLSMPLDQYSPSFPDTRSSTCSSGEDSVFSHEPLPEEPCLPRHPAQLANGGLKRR
Chain of FGFR3 (P22607 whole entry, looked up): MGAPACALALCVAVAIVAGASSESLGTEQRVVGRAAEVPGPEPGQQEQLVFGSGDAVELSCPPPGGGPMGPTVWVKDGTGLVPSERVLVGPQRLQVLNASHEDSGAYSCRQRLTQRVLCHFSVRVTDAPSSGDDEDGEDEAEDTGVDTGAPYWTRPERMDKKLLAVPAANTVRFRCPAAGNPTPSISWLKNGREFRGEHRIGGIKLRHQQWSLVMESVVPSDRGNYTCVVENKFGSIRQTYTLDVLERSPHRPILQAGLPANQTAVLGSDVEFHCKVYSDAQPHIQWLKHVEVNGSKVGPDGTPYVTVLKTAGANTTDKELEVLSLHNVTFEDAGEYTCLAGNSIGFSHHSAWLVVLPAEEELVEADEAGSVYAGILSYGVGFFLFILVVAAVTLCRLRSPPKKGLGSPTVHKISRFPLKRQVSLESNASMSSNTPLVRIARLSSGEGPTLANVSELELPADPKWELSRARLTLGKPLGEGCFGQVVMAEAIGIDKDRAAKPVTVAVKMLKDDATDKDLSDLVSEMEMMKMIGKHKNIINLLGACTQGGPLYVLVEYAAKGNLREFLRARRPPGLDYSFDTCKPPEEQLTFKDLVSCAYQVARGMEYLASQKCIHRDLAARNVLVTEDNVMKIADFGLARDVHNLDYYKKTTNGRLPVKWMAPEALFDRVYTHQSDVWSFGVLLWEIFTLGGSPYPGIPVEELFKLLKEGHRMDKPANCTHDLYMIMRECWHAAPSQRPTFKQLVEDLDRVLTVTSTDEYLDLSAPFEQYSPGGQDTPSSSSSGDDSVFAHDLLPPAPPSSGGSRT
Chain of Fes (P07332 whole entry, looked up): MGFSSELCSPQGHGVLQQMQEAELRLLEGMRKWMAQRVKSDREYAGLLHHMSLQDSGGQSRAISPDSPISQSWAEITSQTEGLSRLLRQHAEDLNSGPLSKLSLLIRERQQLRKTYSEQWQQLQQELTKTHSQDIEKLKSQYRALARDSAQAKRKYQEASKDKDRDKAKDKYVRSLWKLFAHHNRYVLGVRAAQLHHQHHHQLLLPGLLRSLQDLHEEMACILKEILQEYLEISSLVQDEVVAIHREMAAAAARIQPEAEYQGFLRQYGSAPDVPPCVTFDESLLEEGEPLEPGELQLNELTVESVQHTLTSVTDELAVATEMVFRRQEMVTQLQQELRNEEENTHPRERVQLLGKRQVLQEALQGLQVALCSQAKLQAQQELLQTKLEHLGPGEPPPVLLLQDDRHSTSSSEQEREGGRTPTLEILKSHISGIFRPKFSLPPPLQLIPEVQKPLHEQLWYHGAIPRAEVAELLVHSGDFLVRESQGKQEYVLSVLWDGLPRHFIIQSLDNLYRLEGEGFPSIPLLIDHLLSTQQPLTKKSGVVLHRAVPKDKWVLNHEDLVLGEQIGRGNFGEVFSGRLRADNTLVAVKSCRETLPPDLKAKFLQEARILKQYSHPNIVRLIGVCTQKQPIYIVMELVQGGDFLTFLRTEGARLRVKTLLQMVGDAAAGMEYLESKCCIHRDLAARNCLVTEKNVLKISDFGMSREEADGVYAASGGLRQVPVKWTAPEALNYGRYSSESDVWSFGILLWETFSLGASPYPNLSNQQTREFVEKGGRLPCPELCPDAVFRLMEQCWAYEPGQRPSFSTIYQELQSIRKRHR
Chain of EPHB1 (P54762 whole entry, looked up): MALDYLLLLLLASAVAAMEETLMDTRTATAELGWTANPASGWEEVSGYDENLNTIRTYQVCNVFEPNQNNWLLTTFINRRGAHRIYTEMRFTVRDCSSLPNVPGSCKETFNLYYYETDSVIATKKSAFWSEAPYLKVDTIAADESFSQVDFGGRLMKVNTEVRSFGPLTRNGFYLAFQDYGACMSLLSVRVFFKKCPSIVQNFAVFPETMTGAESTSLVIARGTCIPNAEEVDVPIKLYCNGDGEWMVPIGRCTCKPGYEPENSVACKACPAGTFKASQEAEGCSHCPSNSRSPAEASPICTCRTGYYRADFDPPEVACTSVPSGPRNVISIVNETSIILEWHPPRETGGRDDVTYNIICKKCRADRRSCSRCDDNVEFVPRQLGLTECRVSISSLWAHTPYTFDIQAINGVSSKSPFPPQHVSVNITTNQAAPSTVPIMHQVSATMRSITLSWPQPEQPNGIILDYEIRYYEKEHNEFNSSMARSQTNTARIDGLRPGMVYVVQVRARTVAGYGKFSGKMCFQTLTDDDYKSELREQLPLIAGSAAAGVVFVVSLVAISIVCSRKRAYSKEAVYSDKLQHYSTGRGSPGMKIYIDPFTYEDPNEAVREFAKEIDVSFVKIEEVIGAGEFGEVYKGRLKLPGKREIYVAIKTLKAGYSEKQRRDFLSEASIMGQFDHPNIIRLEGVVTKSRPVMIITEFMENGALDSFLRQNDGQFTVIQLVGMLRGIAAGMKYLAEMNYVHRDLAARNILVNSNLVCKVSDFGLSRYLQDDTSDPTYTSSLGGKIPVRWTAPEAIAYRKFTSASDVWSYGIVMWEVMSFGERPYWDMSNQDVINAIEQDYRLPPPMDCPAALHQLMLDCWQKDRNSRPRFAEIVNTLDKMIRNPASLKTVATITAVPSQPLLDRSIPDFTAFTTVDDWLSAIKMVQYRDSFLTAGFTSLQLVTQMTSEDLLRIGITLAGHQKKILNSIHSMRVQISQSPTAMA

IAAEFYDNLPH [DEGS1_Y284_YF]: the SH2 binding enrichment with c-Src SH2 came out at 0.77; with SHP2-C SH2 it was 0.697; in the series with Grb2 SH2, 0.774. Moreover, the phosphorylation enrichment with Fes was found to be 0.79; in the series with AncSZ, 0.894; with EPHB1, 0.531; in the series with Hck, 3.88; with Fyn, 0.72; in the series with FGFR3, 0.682. In addition, the phosphorylation enrichment came out at 1.12 in the series on Fer (mouse); 0.559 with Jak2; 0.687 in the series with MERTK; 0.723 in the series on c-Src; 0.66 with FGFR1; 0.68 with EPHB2. The phosphorylation enrichment with c-Abl (mouse) came out at 0.535.

With GLDSSYLLRDS [SH2D1A_Y29_G27S], the values for the SH2 binding enrichment with c-Src SH2, with SHP2-C SH2 and with Grb2 SH2 were 0.476, 0.64 and 0.908, respectively. In addition, the phosphorylation enrichment with Fes is 0.612; with AncSZ, 0.477; in the series with EPHB1 it was 0.343; in the series with Hck it was 0.323; in the series with Fyn it was 0.386; with FGFR3, 0.426. Moreover, the phosphorylation enrichment in the series on Fer (mouse) was 0.305; with Jak2, 0.464; in the series with MERTK, 0.422; with c-Src, 0.386; with FGFR1, 0.613; in the series with EPHB2, 0.36. Moreover, in the series on c-Abl (mouse), the phosphorylation enrichment is 0.434.

On to LFMGDYVGRGY [PPP2CA_Y86_D88G], for which the SH2 binding enrichment in the series with c-Src SH2 was 0.536; with SHP2-C SH2, 0.596; with Grb2 SH2 it was 0.854. For the same sequence, the phosphorylation enrichment with Fes came to 1.21; in the series with AncSZ it was 1.53; with EPHB1, 2.15; in the series with Hck it was 1.75; with Fyn, 1.37; with FGFR3, 1.19. Also, the phosphorylation enrichment in the series on Fer (mouse) was 0.713; in the series with Jak2, 2.97; with MERTK it was 0.847; in the series on c-Src, 1.53; in the series with FGFR1 it was 1.17; in the series with EPHB2, 1.72. In the series with c-Abl (mouse), the phosphorylation enrichment came out at 0.953.

With VNKIFYPDFIV [LIG3_Y768_YF], the SH2 binding enrichment with c-Src SH2 came to 0.498; with SHP2-C SH2 it was 0.919; in the series with Grb2 SH2, 1.14. Further, the phosphorylation enrichment with Fes was 1.08; in the series on AncSZ, 1; in the series with EPHB1 it was 0.465; in the series with Hck, 0.529; with Fyn, 0.464; with FGFR3 it was 0.584. Also, the phosphorylation enrichment worked out at 0.5 in the series on Fer (mouse); 0.811 in the series with Jak2; 0.518 with MERTK; 0.432 in the series with c-Src; 0.49 with FGFR1; 0.928 in the series with EPHB2. Also, the phosphorylation enrichment with c-Abl (mouse) turned out to be 0.612.

TRSYDYTEGGD [FGF7_Y58_M59T]: the SH2 binding enrichment in the series with c-Src SH2 came to 1.65; in the series with SHP2-C SH2, 0.565; with Grb2 SH2, 0.706. Further, the phosphorylation enrichment with Fes was 0.976; with AncSZ it was 0.898; with EPHB1, 0.439; in the series with Hck, 0.446; in the series with Fyn it was 0.56; in the series with FGFR3, 0.59. Besides, the phosphorylation enrichment was 0.414 in the series on Fer (mouse); 0.876 in the series with Jak2; 0.463 with MERTK; 0.375 with c-Src; 0.61 in the series with FGFR1; 0.465 in the series with EPHB2. In the series with c-Abl (mouse), the phosphorylation enrichment came to 0.642.

On to GRPLSYWLTGC [LYZL6_Y140_F139S], for which the SH2 binding enrichment with c-Src SH2 worked out at 0.464; with SHP2-C SH2, 0.681; with Grb2 SH2, 0.763. The phosphorylation enrichment with Fes is 1.33; in the series with AncSZ, 1.12; with EPHB1 it was 0.686; in the series with Hck, 0.503; with Fyn it was 0.527; in the series with FGFR3, 0.793. Further, the phosphorylation enrichment with Fer (mouse) stood at 0.556; in the series with Jak2, 1.24; in the series with MERTK, 0.411; with c-Src, 0.397; in the series with FGFR1, 0.535; with EPHB2, 0.664. Further, the phosphorylation enrichment in the series on c-Abl (mouse) was found to be 0.846.

SGSIHYSRVPR [GLB1_Y57]: the SH2 binding enrichment is 0.861 in the series with c-Src SH2, 0.824 with SHP2-C SH2 and 0.734 in the series with Grb2 SH2. Moreover, the phosphorylation enrichment in the series with Fes amounted to 0.763; with AncSZ, 0.629; with EPHB1 it was 0.542; with Hck it was 0.529; in the series with Fyn it was 0.605; in the series with FGFR3 it was 0.578. In addition, the phosphorylation enrichment in the series on Fer (mouse) was 0.535; with Jak2 it was 0.772; in the series with MERTK, 0.64; in the series with c-Src, 0.677; with FGFR1, 0.772; with EPHB2 it was 0.436. Besides, the phosphorylation enrichment in the series on c-Abl (mouse) was 0.716.

For AMCVRYDGVEV [ADAMTSL2_Y594], the SH2 binding enrichment in the series with c-Src SH2 was 0.859; in the series with SHP2-C SH2, 0.682; with Grb2 SH2, 0.805. The phosphorylation enrichment with Fes worked out at 1.26; with AncSZ it was 1.19; with EPHB1 it was 0.764; with Hck, 0.644; in the series with Fyn it was 0.583; in the series with FGFR3 it was 0.781. The phosphorylation enrichment in the series with Fer (mouse) was found to be 0.791; with Jak2, 1; in the series with MERTK it was 0.49; in the series on c-Src, 0.542; in the series with FGFR1, 0.7; in the series with EPHB2, 0.735. In addition, in the series with c-Abl (mouse), the phosphorylation enrichment stood at 0.817.
